According to the supplement of paper PMC10567573:

B1: CLCN6 (parent)
chain: ILRSQLVTLLVRGVCYSESQSSAS

Variants of: B1
Assay: protein stability index of a GFP-peptide fusion (GPS, HEK-293T) (PSI 1-6); higher = more stable
Settings: c terminus: a fixed tail appended
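Note: lentivirally expressed fusions sorted by FACS into six bins by GFP to DsRed ratio, PSI derived from sequencing read proportions per bin multiplied by bin number.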

Point of comparison: ILRSQLVTLLWRGVCYSESQSSAS [V11W], protein stability index 2.92. Against it:
- ILRSQLVTLLQRGVCYSESQSSAS [V11Q] — lower, 2
- ILRSQLVTLLERGVCYSESQSSAS [V11E] — lower, 1.54
- ILRSQLVTLLARGVCYSESQSSAS [V11A] — lower, 2.77
- ILRSQLVTLLDRGVCYSESQSSAS [V11D] — lower, 2.02
- ILRSQLVTLLHRGVCYSESQSSAS [V11H] — lower, 2.78
- ILRSQLVTLLCRGVCYSESQSSAS [V11C] — lower, 2.1
- ILRSQLVTLLMRGVCYSESQSSAS [V11M] — higher, 3.46
- ILRSQLVTLLTRGVCYSESQSSAS [V11T] — lower, 2.8
- ILRSQLVTLLNRGVCYSESQSSAS [V11N] — higher, 3.1
- ILRSQLVTLLLRGVCYSESQSSAS [V11L] — higher, 4.2
- ILRSQLVTLLRRGVCYSESQSSAS [V11R] — lower, 2.01
- ILRSQLVTLLGRGVCYSESQSSAS [V11G] — lower, 2.39
- ILRSQLVTLLSRGVCYSESQSSAS [V11S] — lower, 1.78
- ILRSQLVTLLVRGECYSESQSSAS [V14E] — lower, 1.47
- ILRSQLVTLLVRGQCYSESQSSAS [V14Q] — higher, 3.26
- ILRSQLVTLLVRGWCYSESQSSAS [V14W] — lower, 2.82
- ILRSQLVTLLVRGFCYSESQSSAS [V14F] — lower, 2.46
- ILRSQLVTLLVRGKCYSESQSSAS [V14K] — lower, 2.87
- ILRSQLVTLLVRGSCYSESQSSAS [V14S] — lower, 2.76
- ILRSQLVTLLVRGMCYSESQSSAS [V14M] — lower, 1.59
- ILRSQLVTLLVRGHCYSESQSSAS [V14H] — lower, 2.01
- ILRSQLVTLLVRGRCYSESQSSAS [V14R] — lower, 2.67
- ILRSQLVTLLVRGICYSESQSSAS [V14I] — lower, 2.79
- ILRSQLVTLLVRGNCYSESQSSAS [V14N] — lower, 1.57
- ILRSQLVTLLVRGTCYSESQSSAS [V14T] — higher, 3.29
- ILRSQLVTLLVRGGCYSESQSSAS [V14G] — lower, 2.1
- ILPSQLVTLLVRGVCYSESQSSAS [R3P] — lower, 2.36
- ILASQLVTLLVRGVCYSESQSSAS [R3A] — lower, 2.34
- ILMSQLVTLLVRGVCYSESQSSAS [R3M] — lower, 2.62
- ILVSQLVTLLVRGVCYSESQSSAS [R3V] — lower, 2.67
- ILISQLVTLLVRGVCYSESQSSAS [R3I] — higher, 3.78
- ILCSQLVTLLVRGVCYSESQSSAS [R3C] — higher, 3.38
- ILYSQLVTLLVRGVCYSESQSSAS [R3Y] — lower, 2.72
- ILKSQLVTLLVRGVCYSESQSSAS [R3K] — higher, 3.85
- ILWSQLVTLLVRGVCYSESQSSAS [R3W] — higher, 3.08
- ILQSQLVTLLVRGVCYSESQSSAS [R3Q] — higher, 3.3
- ILRSQLVTKLVRGVCYSESQSSAS [L9K] — lower, 1.99
- ILRSQLVTMLVRGVCYSESQSSAS [L9M] — lower, 2.5
- ILRSQLVTNLVRGVCYSESQSSAS [L9N] — lower, 1.59
- ILRSQLVTELVRGVCYSESQSSAS [L9E] — lower, 1.94
- ILRSQLVTCLVRGVCYSESQSSAS [L9C] — higher, 3.61
- ILRSQLVTSLVRGVCYSESQSSAS [L9S] — lower, 1.6
- ILRSQLVTWLVRGVCYSESQSSAS [L9W] — lower, 2.83
- ILRSQLVTPLVRGVCYSESQSSAS [L9P] — lower, 2.21
- ILRSQLVTHLVRGVCYSESQSSAS [L9H] — lower, 1.39
- ILRSQLVTQLVRGVCYSESQSSAS [L9Q] — lower, 1.69
- ILRSQLVTRLVRGVCYSESQSSAS [L9R] — lower, 1.6
- ILRSQLVTTLVRGVCYSESQSSAS [L9T] — the same, 2.92
- ILRSQLVTALVRGVCYSESQSSAS [L9A] — higher, 3.4
- ILRSQLVTDLVRGVCYSESQSSAS [L9D] — lower, 1.77
- ILRSQLVTGLVRGVCYSESQSSAS [L9G] — lower, 1.8
- ILRSQLVTFLVRGVCYSESQSSAS [L9F] — higher, 4.09
- ILRSQLVTLGVRGVCYSESQSSAS [L10G] — lower, 1.92
- ILRSQLVTLNVRGVCYSESQSSAS [L10N] — lower, 2.49
- ILRSQLVTLTVRGVCYSESQSSAS [L10T] — lower, 2.46
- ILRSQLVTLMVRGVCYSESQSSAS [L10M] — higher, 2.93
- ILRSQLVTLIVRGVCYSESQSSAS [L10I] — lower, 2.14
- ILRSQLVTLAVRGVCYSESQSSAS [L10A] — lower, 1.07
- ILRSQLVTLKVRGVCYSESQSSAS [L10K] — lower, 2.05
- ILRSQLVTLYVRGVCYSESQSSAS [L10Y] — lower, 2.23
- ILRSQLVTLCVRGVCYSESQSSAS [L10C] — lower, 2.21
- ILRSQLVTLDVRGVCYSESQSSAS [L10D] — lower, 1.8
- ILRSQLVTLRVRGVCYSESQSSAS [L10R] — lower, 2.14
- ILRSQLVTLSVRGVCYSESQSSAS [L10S] — lower, 1.31
- ILRSQLVTLPVRGVCYSESQSSAS [L10P] — lower, 2.52
- ILRSQLVTLEVRGVCYSESQSSAS [L10E] — lower, 2.53
- ILRSQLVTLHVRGVCYSESQSSAS [L10H] — lower, 2.07
- ILRSQLVTLWVRGVCYSESQSSAS [L10W] — higher, 3.87
- ILRSQLVTLQVRGVCYSESQSSAS [L10Q] — lower, 1.72
- ILRSQLVTLVVRGVCYSESQSSAS [L10V] — lower, 1.92
- ILRSQKVTLLVRGVCYSESQSSAS [L6K] — lower, 2.08
- ILRSQAVTLLVRGVCYSESQSSAS [L6A] — lower, 2.2
- ILRSQTVTLLVRGVCYSESQSSAS [L6T] — lower, 2
- ILRSQYVTLLVRGVCYSESQSSAS [L6Y] — lower, 2.02
- ILRSQVVTLLVRGVCYSESQSSAS [L6V] — lower, 1.64
- ILRSQIVTLLVRGVCYSESQSSAS [L6I] — lower, 2.86
- ILRSQRVTLLVRGVCYSESQSSAS [L6R] — lower, 2.67
- ILRSQFVTLLVRGVCYSESQSSAS [L6F] — lower, 2.41
- ILRSQMVTLLVRGVCYSESQSSAS [L6M] — lower, 1.98
- ILRSQEVTLLVRGVCYSESQSSAS [L6E] — lower, 1.88
- ILRSQQVTLLVRGVCYSESQSSAS [L6Q] — lower, 1.66
- ILRSQSVTLLVRGVCYSESQSSAS [L6S] — lower, 1.42
- ILRSQWVTLLVRGVCYSESQSSAS [L6W] — higher, 3.18
- ILRSQDVTLLVRGVCYSESQSSAS [L6D] — lower, 1.55
- ILRSQPVTLLVRGVCYSESQSSAS [L6P] — lower, 2.04
- ILRSQNVTLLVRGVCYSESQSSAS [L6N] — lower, 1.76
- ILRSQHVTLLVRGVCYSESQSSAS [L6H] — lower, 2.17
- ILRSQGVTLLVRGVCYSESQSSAS [L6G] — lower, 2.86
- ILRSQCVTLLVRGVCYSESQSSAS [L6C] — higher, 3.02
- ISRSQLVTLLVRGVCYSESQSSAS [L2S] — higher, 3.23
- IRRSQLVTLLVRGVCYSESQSSAS [L2R] — lower, 1.95
- IYRSQLVTLLVRGVCYSESQSSAS [L2Y] — higher, 3.62
- IQRSQLVTLLVRGVCYSESQSSAS [L2Q] — lower, 2.62
